Results reported in the DeepSol protein solubility set.

Assay: soluble on expression in E. coli; label from the status in PepcDB or PDB records
With “SLGMDEKSVAIVFPHHLLEDHPAAGKTSGFILVEDQLFFGDPVFGLRFHKNKLVLHRASMRYYHDHLKSRGLKAEYIQYSPDPHMGYLRDHLEGYDRVYTLELLDHELEARMKKLSMELGLEITEIEAPFIFRRNLMDGYFRDGRFLLRSFYIRERKRLSILMENSRPAGGKWTFDTENRKRMPPDLQVPAPVKLPENEYVQEAKEYVSEKFPDNPGSMDRFNYP” the “soluble on expression in E. coli” value was “not soluble”.
In the case of “VLLLDVTPLSLGIETLGGVFTRLIPRNTTIPTKKSQIFSTAAAGQTSVEIRVFQGERELVRDNKLIGNFTLAGIPPAPKGVPQIEVTFDIDADGIINVSARDKATNKDSSITVAGSSGLSENEIEQMVNDAEKFKSQDEARKQAIETANKADQLANDTENSLKEFEGKVDKAEAQKVRDQITSLKELVARVQGGEEVNAEELKTKTEELQTSSMKLFEQLYKNDSNNNNNNNGNNAESGETKQ”, the “soluble on expression in E. coli” value was “soluble”.
With “MSKRLYQQIETLWDYLQLHQQPNVADLILVLGSNDVRVAEHAAKLYHQGLAPYVLFSGGFGRFTQGVFNHNEAETFAAIAKDAGVPEHAILLETQSTNSGENLHFSHQLLVQQARPAKRILLVQKPYMERRAYATFMQQWPESVESVQVTSPAGSFFDYLTSELTSDFVLNAMLGDFERIRDYPALGFQITQPIPEPVMQAYQALLPLKVNLEMSLEHHHHHH” the “soluble on expression in E. coli” value was “not soluble”.
In the case of “MSLSVKILALDTATERCSVALLVGNTVYSRSEIAPRDHTKKVLPMVDEVLKEAGVTLQELDALAFGRGPGSFTGVRIGIGIAQGLAFGADLPMIGISTLAAMAQAAYRLQGLTHVASAIDARMEEVYWGRYVRQEDGSWQVAEAECVIAPALLAQTLTQDDLTQDEQIWATAGTGWDAYPALADLPLQLQTSEVLYPDAQDMAYLAQFELAQGNKVSVEQASPVYLRDTVAWKKLPGREEGHHHHHH”, the “soluble on expression in E. coli” value was “soluble”.
With “MIYSFRNSGFRDPETGVYNQTYFMEVFNREWHRHIREQQSLALLYLCPHIHETVKQPHLLEFFTKQVQEALLRATDLIARLDHNHFALGLFNIDEEGTEVVLKRIGQHIQDFNQEFGKNHKLKIDYKLAACLCLPTQEQKIESMFNNVSKLSQELERSPQQSQALIKLQ” the “soluble on expression in E. coli” value was “not soluble”.
For “MSKNRQIQGCEVNECLHLDSTKPKSMLNKVKSVHSGFLGEPCVSVCCVCASSPVFLRRYFEWQPFSPREPHVWSTDRPLKVIDLTHLLFTEQMSDCVLGCTPQHCRLQSPVFARDTVLEVEVLLYSSLRFAHCSVDTRRPAFCSL”, the “soluble on expression in E. coli” value was “not soluble”.
In the case of “MGRMNVSMMRYLEGDHFRVLIAVEMGMKNHEVVPLALVSAIAGIHRGGVARTLNDLCKHSLVAFERSKKFDGYRLTIRGYDYLALRALCSREVVGSVGNQIGIGKESDVYVGGDPELNDLCLKFHRLGRTSFRKIKEKRDYHKKRKSASWLYLSRLAAAKEFAFLKALQERGFPVPKAVDVCRHLVVMQLVVGQTLCNVTHVEDAGALYDRLMALIVKMARHGVIHGDFNEFNLIMLEDERIVMIDFPQMVSIDHPNAEYYFDRDVTCVRTFFKRKFDYESEDWPKFDEVERKGNMDVLLEASGFTKKMALDLNKAYDEGDFLAHCEQELRNRQEEDLGEDEDDSDDSKSMEDIQEEPEDLEKDHEELQAQENTVKQQKIVLSQTTRFTDWLSDATNQLEAVDLDALKSEEGYKDIELPPEDFKRPADSENDDENDEDEEEGEEEDADGHVAVEEQVAKVVKKKRVPSGARSVASSAATFTAEDVKRRLALDRKRNKEKIRLKVKGKQSAVGRNRKDNKDVIAEYAGWI”, the “soluble on expression in E. coli” value was “not soluble”.
For “MSLLAYTYIEHGKFELREKPEPKITDARDAIVRVTLGSICTSDLHIKHGSVPRAVPGITVGHEMVGVVEEVGAEVTSVRPGDRVTVNVETFCGECFFCHHGYVNNCTDPNGGWALGCRIDGGQAEYVRVPYADQGLNRIPDTVSDEQALFVGDVLATGFWATRISEITEKDTILLIGAGPTGICTLLCSMLKNPKRIIVCEKSPERIQFVREHYPDVLITTPENCKEFVLQNSDHSGADVVLEVAGTEDSFRMAWDCARPNAIVTIVALYDKPLLFPLPEMYGKNLTFKTGGVDGCDCAEILSLIEEGKIDTTPLITHRCSLNEIEEAYRIFENKLDGVIKVAIVCQTESEGHHHHHH”, the “soluble on expression in E. coli” value was “soluble”.
For “MDKQKVALVLSMGGARGIAHIGVIEELLRHNFEITSIAGSSMGAMVGAMYASGKLEECKEWLYSWDKRKMWELADLTLSRDGLVKGDRFIKELKQIIPVMNIEDLPIPYVAMATDIVCDQEVRFDSGNLYDAIRATISIPMLFRPLRKDGMVLIDGGILNPLP”, the “soluble on expression in E. coli” value was “not soluble”.
In the case of “MVEEFKVTPWEVEGVVDYDKLIKHFGTSPLTEDLLEKTAELTKSELPIFFRRKFFFSHRDYDLILKDYEEGRGFFLYTGRGPSGPMHIGHIIPFFATKWLQEKFGVNLYIQITDDEKFLFKENLTFDDTKRWAYDNILDIIAVGFDPDKTFIFQNSEFTKIYEMAIPIAKKINFSMAKAVFGFTEQSKIGMIFFPAIQIAPTFFERKRCLIPAAIDQDPYWRLQRDFAESLGYYKTAALHSKFVPSLTSLSGKMSASKPETAIYLTDSPEDVEKKVWKFTLTGGRPTLKEQREKGGEPEKCVVFKWLEIFFEEDDKKLKERYYACKNGELTCGECKRYLISKIQEFLKEHQRRRKKAEKLVEKFKYTGKLAQEMWNEAIPEPLKRSHHHHHH”, the “soluble on expression in E. coli” value was “soluble”.
In the case of “STWTPRNRSEDEEEDENIDLEKNDDDEPNKPTDKGDSTDTEADHKLINPGEIPCDRFKDETHSKDLDPPLTDSELKEGEERTDLLAEQAKPTTSSPSVLQRGSDLITQEKPSEPGHAASTGNSNVTSVIHSPPSAPKPKLWSLAEIATSSDRCKGSSEASQAAGLSQSTVIASAASPTRSSPQCPLPNNTVLSRPIYYTSPFYPGYTNYSTFGHLHSSHGTNTSSTAHFNGLSQTVLNRAEALVRESKVRSQTQVDLCKDSPYELKKGMSNI”, the “soluble on expression in E. coli” value was “not soluble”.
In the case of “QLTPTFYRETCPNLFPIVFGVIFDASFTDPRIGASLMRLHFHDCFVQGCDGSVLLNNTDTIESEQDALPNINSIRGLDVVNDIKTAVENSCPDTVSCADILAIAAEIASVLGGGPGWPVPLGRRDSLTANRTLANQNLPAPFFNLTQLKASFAVQGLNTLDLVTLSGGHTFGRARCSTFINRLYNFSNTGNPDPTLNTTYLEVLRARCPQNATGDNLTNLDLSTPDQFDNRYYSNLLQLNGLLQSDQELFSTPGADTIPIVNSFSSNQNTFFSNFRVSMIKMGNIGVLTGDEGEIRLQCNFVNG”, the “soluble on expression in E. coli” value was “soluble”.
For “QVQLQESGGGLVQAGGSLRLSCTASRRTGSNWCMGWFRQLAGKEPELVVALNFDYDMTYYADSVKGRFTVSRDSGKNTVYLQMNSLKPEDTAIYYCAARSGGFSSNRELYDGWGQGTQVTVSS”, the “soluble on expression in E. coli” value was “soluble”.
In the case of “MSSHFVDWLIAHGYEQDAFDRPDVGPAGSFGGKTRSGDPVEKEPVIFIHGSGDTALFTQQPLATGFSRSIQYFLEQNYTEAELYATTWGDTWGSGSMLDTYSTIHTCGNLIYLRRFLEAVIGYTGAKKVDIIAHSVGVPLMRKVVKGGTLIGTDGNCTLGPPLGAKVDTFLGIAGPNFGLCVCQLAQTVPAWCNALDGLYPGYTCQDQLWCGYTSGSCKQENYSNLLQKTNDDPNREGDHVYAMWSDVDEVLLNRGMVWGKPTARIPGMNGRWISDRNGHVAMKDLTELRQFEAIVHHSI”, the “soluble on expression in E. coli” value was “not soluble”.
With “MGLFASAPVDDGSMEIVRDFIQNMENDAQSSNKSAFADCFMDTFNFNVRGRIFTKALFVESYLTKPNPEPLILKSSIFTQGKNEIKFNVSHVVGPRTNIADFYLLREGEEGKWRLKSGIVIN” the “soluble on expression in E. coli” value was “not soluble”.
In the case of “MQQVFKKPVSLKDVQTHFCPGCHHGTFHRLVAEAMDEFGVQKKTIGVASVGCSVFLYGYFDIDVVEAPHGRAPAVATGVKRARPDAFVFTYQGDGDLAAIGTSEIIHAANRGEDITVIFVNNTTYGMTGGQMAPTTLVGQRTSTSPYGRKNEKDGSPIRMAELLAQLEGVAFSARVAVNNPKNLMDAKRQIKKAFRYQAEGKGFSFIEALSSCPTNWGMDALAANERVGTEMCA”, the “soluble on expression in E. coli” value was “not soluble”.
With “MLTVTDYYKELLNFCARTLKDRDAAADLVQEAYTRFLVAQRSGAAIADPRALLFRTTRNLLIDQHRRAEVRMHLSLDTLLEEEQPLAPRHLQPEEVLAFSRYAQALYAAIESLPRRCREAFILNRFDGLSHQEVAEKMGISRNMVAQHIIRGVLVCKACDDRFHGRVVLASKPAE” the “soluble on expression in E. coli” value was “not soluble”.
With “MGSDKIHHHHHHMAARNDDKYRGDTENKGFWTIDFGRSPVIGTAIHDGHFIRSDIASLMALSPEQRLREEDPFTGEMIARLTNRLVVHHSRFEIDLNRAADQAIYLKPEQSWGLEVWSEEPSQDAVRHSLDFHADYYAMLESVLSSVERRHGPFVVLDVHSYNHRRQGAGEPPTAQAEAPDINIGTFSMDRSRWNDVVSAVGEHFASATIGGRRLDVRENVAFQGKGEQTRFIHERFAENGCAIAIEFKKFFMDEWTGEPDRRVVSDIRETIAALQPVLEECLRSR” the “soluble on expression in E. coli” value was “not soluble”.
For “AIGRYTPADSTQELRDAARRLLPSSSLDKDLERLLRTWHKGYSTKTKRGERPCINSDTGPYTSDSVYIRRLSALPSAVPIQFNPAVKQCIKLYTEERRRLVRYMLSLADLYFPQIEETLDRHNLPIELKYLTIV”, the “soluble on expression in E. coli” value was “not soluble”.
For “MLPDKGWLVEARRVPSPHYDCRPDDEKPSLLVVHNISLPPGEFGGPWIDALFTGTIDPDAHPFFAEIAHLRVSAHCLIRRDGEIVQYVPFDKRAWHAGVSNYQGRERCNDFSIGIELEGTDTLAYTDAQYQQLAAVTRTLIASYPAIADNMTGHCNITPDRKTDPGPAFDWPRFRALVALSSHKEMT”, the “soluble on expression in E. coli” value was “not soluble”.
In the case of “MNSEIFRIFRKKYSEEIRNPPMNATTLPEALKLMQYIGDAIGTIRDPQELFRTVTDKLRLLFAFDSAVIITIDRERREASVFFEMLRFELPEQLRHQTRSIAGTWLEGHLDDRTVTVASIARDIPSFGADGAPLLWTLHELGMRQIVLSPLRSGGRVIGFLSFVSAEEKLWSDGDKSLLSGVSSSIAIAVSNALAYEELRQRE”, the “soluble on expression in E. coli” value was “not soluble”.
For “MKRDRSDYEESMKHIDIVESLMMLSRSFVVKQIDVKQSTGSKTNHNNHFECKTCNRKFDSFQALGGHRASHKKPKLIVDQEQVKHRNKENDMHKCTICDQMFGTGQALGGHMRKHRTSMITEQSIVPSVVYSRPVFNRCSSSKEILDLNLTPLENDLVLIFGKNLVPQIDLKFVN”, the “soluble on expression in E. coli” value was “soluble”.
For “MGGSHHHHHHGMASALRTDKKSEFLKALKRDRVEEEHEDESRAGSEKDDDSFNLHNSNSTHQERDINRNFDENEIPQENGNASVISQQIIRSSTFPQTDVLSSSLEAEHRLLKEMGWQEDSENDETCAPLTEDEMREFQVISEQLQKNGLRKNGILKNGLICDFKFGPWKNSTFKPTTENDDTETSSSDTSDDDDV”, the “soluble on expression in E. coli” value was “not soluble”.
In the case of “GMVRRTRAEMEETRATLLATARKVFSERGYADTSMDDLTAQASLTRGALYHHFGDKKGLLAAVVEQIDAEMDERLQAISDTAEDDWEGFRCRCRAYLEMALEPEIQRIVLRDARAVLGGASPDSQRHCVESMQRLIDNLIRQGVVAEADPQALASLIYGSLAEAAFWIAEGEDGNARLAQGVAALELLLRGLLVKPR”, the “soluble on expression in E. coli” value was “soluble”.
For “MQVRIERAERIESELEEHVGDQTFVEESRFLEEDEQREGEILDQIIFVDGKRRSFVRITTDEGITGIFAELCVGAVIWDREGGTKTLFSPDKPPVKERVLGFSQSFQEEGYEEVGGILFKVVKEGKDAMQSIDLYMRSLEIEEVRKHMDKNILIVKDGPAARELPFEENVGPIGLVKNIGVTELSKEDFKKLRFLKKGKRSKMFVSSRETPLKKVGAYVKLIDGEGIRGLVRLETYVKDDNQIPYIRKVFDDLAKTLPHLTADLPIPRLPENILPIQFLEENLSYYLTDKNYMNTRLFAYIGR”, the “soluble on expression in E. coli” value was “not soluble”.
